Six molecules from US20160194391A1 (AstraZeneca / MedImmune, published 2016) can be followed below.

Like-named read-outs stand apart in the source and are kept apart here.

One test deals with T1, IL-23 p40-p19-His (human).
T1 construct: Single-chain fusion coated on the IL-23 ELISA plates; also called p40:p19-6×HIS
T1 chain: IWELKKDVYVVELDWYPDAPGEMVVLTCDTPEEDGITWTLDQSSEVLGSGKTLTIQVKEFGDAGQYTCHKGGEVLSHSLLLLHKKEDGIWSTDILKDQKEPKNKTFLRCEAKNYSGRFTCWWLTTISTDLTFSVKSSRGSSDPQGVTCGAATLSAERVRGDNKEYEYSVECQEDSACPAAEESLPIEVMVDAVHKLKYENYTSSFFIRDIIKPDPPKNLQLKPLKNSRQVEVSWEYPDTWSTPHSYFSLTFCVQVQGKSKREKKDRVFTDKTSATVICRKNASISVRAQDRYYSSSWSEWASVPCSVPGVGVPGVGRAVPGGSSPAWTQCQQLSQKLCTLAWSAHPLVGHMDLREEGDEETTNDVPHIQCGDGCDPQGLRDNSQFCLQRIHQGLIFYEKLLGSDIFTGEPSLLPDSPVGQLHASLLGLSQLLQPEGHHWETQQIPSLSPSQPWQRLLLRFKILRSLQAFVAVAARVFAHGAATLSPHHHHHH
The experiment in a line: ELISA on IL-23 p40-p19-His. On the technique in general: An ELISA detects its analyte on a solid surface through an enzyme-linked reagent.

The target in test [1] is T2, human IL-12 (human, UniProt P29459 23-219; P29460 23-328).
T2 construct: Bioassay used Prospec-Tany Cyt-362
T2 sequence (looked up) 1: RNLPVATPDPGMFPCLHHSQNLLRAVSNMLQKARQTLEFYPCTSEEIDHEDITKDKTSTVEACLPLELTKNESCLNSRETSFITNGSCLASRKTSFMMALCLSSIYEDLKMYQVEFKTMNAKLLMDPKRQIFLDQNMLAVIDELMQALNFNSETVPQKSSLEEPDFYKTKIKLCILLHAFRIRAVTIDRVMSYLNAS
T2 sequence (looked up) 2: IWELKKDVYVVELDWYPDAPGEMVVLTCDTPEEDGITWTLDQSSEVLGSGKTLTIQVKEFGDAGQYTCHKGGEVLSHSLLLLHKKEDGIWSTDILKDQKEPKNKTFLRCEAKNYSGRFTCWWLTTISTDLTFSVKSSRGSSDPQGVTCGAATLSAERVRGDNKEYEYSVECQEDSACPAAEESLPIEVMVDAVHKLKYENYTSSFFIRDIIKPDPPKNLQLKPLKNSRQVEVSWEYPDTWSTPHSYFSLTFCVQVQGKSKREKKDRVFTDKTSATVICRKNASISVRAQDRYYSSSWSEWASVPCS
The test is described as follows: IL-12 binding assay of the selection not described.

The target in test [2] is T3, human dimeric IL-23 (eBiosciences 34-8239) (human, UniProt P29460 23-328; Q9NPF7 20-189).
T3 sequence (looked up) 1: T2 sequence (looked up) 2
T3 sequence (looked up) 2: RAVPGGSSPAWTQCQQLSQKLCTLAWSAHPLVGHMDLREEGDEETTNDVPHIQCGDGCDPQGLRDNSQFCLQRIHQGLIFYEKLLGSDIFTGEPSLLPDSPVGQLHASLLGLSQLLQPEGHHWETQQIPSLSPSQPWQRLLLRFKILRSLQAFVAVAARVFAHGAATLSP
The experiment in a line: cell-based or functional assay.

Test [3] has as its target T4, primate IL-23 (p40:p19 fusion, 6×HIS) (primate).
T4 chain: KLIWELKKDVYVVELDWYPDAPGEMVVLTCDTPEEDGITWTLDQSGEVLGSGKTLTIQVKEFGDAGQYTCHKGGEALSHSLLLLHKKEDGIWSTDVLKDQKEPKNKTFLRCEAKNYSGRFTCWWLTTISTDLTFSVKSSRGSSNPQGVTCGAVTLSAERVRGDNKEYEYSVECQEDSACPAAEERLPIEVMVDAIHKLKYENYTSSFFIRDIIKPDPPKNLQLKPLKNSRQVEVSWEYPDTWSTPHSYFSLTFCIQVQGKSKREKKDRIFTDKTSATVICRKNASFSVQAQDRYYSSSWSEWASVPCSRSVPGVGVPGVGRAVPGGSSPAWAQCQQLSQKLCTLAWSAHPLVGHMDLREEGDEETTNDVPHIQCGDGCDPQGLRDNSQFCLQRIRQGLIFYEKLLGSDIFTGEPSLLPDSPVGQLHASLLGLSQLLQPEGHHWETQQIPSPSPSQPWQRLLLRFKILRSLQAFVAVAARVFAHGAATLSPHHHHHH
The test is described as follows: cell-based or functional assay.

Test [4] deals with T3, human dimeric IL-23 (eBiosciences …). The test is described as follows: cell-based or functional assay. This is another data set of the same source.
The target is the same in test [5]. The experiment in a line: SPR; format for the anti-IL-23 scFv alone not described. A general note: Surface plasmon resonance follows binding to a sensor surface in real time, without labels.
Test [6] has the same target. The test is described as follows: cell-based or functional assay. The source holds these as a separate data set.
Test [7] deals with T5, monkey IL-12 (macaque) (macaque, UniProt P48091 23-219; P48095 23-328).
T5 sequence (looked up) 1: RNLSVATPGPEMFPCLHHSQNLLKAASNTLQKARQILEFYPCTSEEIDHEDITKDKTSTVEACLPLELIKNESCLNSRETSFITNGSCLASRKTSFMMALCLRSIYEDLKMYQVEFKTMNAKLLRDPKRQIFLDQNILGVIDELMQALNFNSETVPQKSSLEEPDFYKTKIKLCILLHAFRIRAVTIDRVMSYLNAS
T5 sequence (looked up) 2: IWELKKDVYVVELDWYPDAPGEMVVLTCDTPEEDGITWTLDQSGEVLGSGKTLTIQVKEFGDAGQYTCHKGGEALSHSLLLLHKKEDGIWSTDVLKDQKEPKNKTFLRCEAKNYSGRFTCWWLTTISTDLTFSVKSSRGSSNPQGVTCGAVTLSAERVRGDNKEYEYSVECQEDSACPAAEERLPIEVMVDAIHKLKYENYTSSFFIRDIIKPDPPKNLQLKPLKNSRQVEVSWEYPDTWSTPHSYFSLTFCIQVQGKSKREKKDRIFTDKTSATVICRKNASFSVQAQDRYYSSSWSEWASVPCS
The test is described as follows: cell-based or functional assay.

Test [8] concerns the target T5, monkey IL-12 (macaque). The test is described as follows: cell-based or functional assay. This is another data set of the same source.
For test [9], the target named is T3, human dimeric IL-23 (eBiosciences …). The experiment in a line: cell-based or functional assay. The source holds these as a separate data set.
For test [10] the target is unchanged. The experiment in a line: cell-based or functional assay. The source holds these as a separate data set.
Test [11] has the same target. The experiment in a line: SPR (SensiQ Pioneer), mAb captured on protein G, human dimeric IL-23 as analyte (1-100 nM), 25 C, 1:1 model; the sentence names no analyte. The method, then: Equilibrium constants for rabbit human chimeric mAbs were determined by binding the mAb to the protein G coated chip followed by binding of each analyte (IL-6 or IL-23) to its respective mAb. In order to minimize mass transfer effects, the surface densities of the mAbs for each analyte were adjusted so that as analyte binding approached saturation its corresponding RU fell between 200 and 300. […] For each binding and dissociation cycle the chip surface was regenerated with 15 uL of 20 mM NaOH (5671-02, Mallinckrodt Baker, Philliphsburg, N.J.). The assay temperature was maintained at 25° C. with an analyte flow rate of 50 μL/min and included a 2 minute association phase and 10-30 minute dissociation phase. The on/off rates (kₐ/kd) and dissociation constants (KD) were determined using the format described above along with pseudo-first-order 1:1 interaction model software (Qdat, ICx Nomadics, Stillwater, Okla.).

Test [12] addresses T2, human IL-12. The test is described as follows: cell-based or functional assay.
Test [13] concerns the target T3, human dimeric IL-23 (eBiosciences …). The experiment in a line: cell-based or functional assay. This is another data set of the same source.
A further test concerns the target human IL-6 (human, UniProt P05231 30-212). The experiment in a line: cell-based or functional assay.

B1: 1H1 chimeric mAb (antibody, V domains shown)
VH: QELKESGGRLVTPGGSLTLSCTASGLTLGSYSMTWVRQAPGKGLEWMGVIGVGGTLNYASWAQGRFTISKPSSTTVDLKMTSLTTEDTATYFCARGTYSGDSIWGPGTLVTVSS
VL: DVVMTQTPSSTSAAVGGTVTIKCQASQSISSWLAWYQQKPGQPPKPLIVRASILTSGVPSRFKGSRSGTEYTLTISGVQREDAATYYCLGGDGHVSNFGGGTELEILR
notes: Rabbit/human chimeric IgG (human IgG1, kappa); HEK293; also called mAb 1H1
In the case of B1, the binding result with IL-23 p40-p19-His and with human IL-12 [1] was “binds” each time. Moreover, in test [2], the “EC50: concentration necessary to inhibit bioactivity of 50 pg/ml of IL-6” value was 0.603 ng/mL. Besides, the “IC50 (read off the curve) (IL-17 from mouse splenocytes, OD450)” value (“IC50 … (IL-17 from mouse splenocytes, OD450)” for short) in [3] and in test [4] was roughly 1 ng/mL throughout.

B2: 31A12 humanized scFv (mammalian expressed) (scFv)
scFv: DIQLTQSPSFLSASVGDRVTITCQASEDIESYLAWYQQKPGKAPKLLIYSASTLTSGVPSRFSGSGSGTEFTLTISSLQPEDFATYYCLGADDTTTVFGGGTKVEIKGGGGSGGGGSGGGGSGGGGSEVQLVESGGGLVQPGGSLRLSCTASGFSLSSYWMTWVRQAPGKGLEWVGTIATSSTYYASWAKGRFTISRDNSKNTLYLQMNSLRAEDTAVYYCARGLTTDYDLDLWGQGTLVTVSSGPPPPHHHHHH
notes: also called Anti IL-23 31A12 scFv; 31A12 scFv
By Kd is commonly meant a measure of binding affinity in units of concentration. The term koff denotes the first-order rate constant of dissociation. One may read the kon as the rate constant with which the complex forms. As for B2, in test [5], binding was characterised by a dissociation constant (Kd) of 92 pM, the koff came to 7.11e-05 s⁻¹ and the kon was determined as 773000 M⁻¹ s⁻¹. Moreover, the “EC50, inhibition of IL-23 induced IL-17 secretion by mouse spleen cells” value in test [6] is 1.37 ng/mL. In the test with monkey IL-12 (macaque) [7], the “IC50 (read off the curve)” value was roughly 10 ng/mL. The “IC50 (read off the curve) (interferon-gamma from NK92 cells, OD450)” value in the test with monkey IL-12 (macaque) [8] was roughly 10 ng/mL.

B3: 45G5 chimeric mAb (antibody, V domains shown)
VH: QSVEESGGRLVTPGTPLTLTCTVSGFSLSVYPINWVRQAPGKGLGWIGIINDVDDTAYSAWAKGRFTISKASSTTVDLKITSPTTEDTATYFCARGYLSYAYAGDAFDPWGPGTLVTVSS
VL: AVLTQTPSPVSAAVGGTVTIKCQSSQSIYNNNLLSWYQQKPGQPPRLLIHFASTLASGVPDRFSGSGSGTQFTLTISGVQCDDAATYYCLGGYDDDADTAFGGGTEVVVV
notes: Rabbit/human chimeric IgG (human IgG1, kappa); HEK293; also called mAb 45G5
As for B3, the “IC50 … (IL-17 from mouse splenocytes, OD450)” value in test [9] was roughly 2 ng/mL. The binding result with IL-23 p40-p19-His and in the test with human IL-12 [1] was “binds” in each case. Moreover, the “EC50: concentration necessary to inhibit bioactivity of 50 pg/ml of IL-6” value in test [2] amounted to 0.385 ng/mL. In the test with monkey IL-12 (macaque) [7], the “IC50 (read off the curve)” value is roughly 4 ng/mL. Moreover, the “IC50 (read off the curve) (interferon-gamma from NK92 cells, OD450)” value with monkey IL-12 (macaque) [8] was roughly 4 ng/mL.

B4: 22H8 chimeric mAb (antibody, V domains shown)
VH: QSLEESGGRLVTPGTPLTLTCTVSGFSLSTYTMNWVRQSPGKGLEWIGAISYDGGTAYANWAKGRFTISKTSTTVDLQIASPTTEDTATYFCARGFYVYAYIGDAFDPWGPGTLVTVSS
VL: AVLTQTPSPVSATVGGTVTIKCQSSQTVYKNNLLSWYQQKPGQPPKLLIYLASTLASGVPSRFSGSGSGTQFTLTISGVQCDDAATYYCLGGYDDDADTAFGGGTEVVVVR
notes: Rabbit/human chimeric IgG (human IgG1, kappa); HEK293; also called mAb 22H8
For B4, the “IC50 … (IL-17 from mouse splenocytes, OD450)” value in test [10] is roughly 0.8 ng/mL. Further, the binding result with IL-23 p40-p19-His is “binds”. In [11], this molecule had a Kd of 221 pM, a koff of 8.94e-05 s⁻¹ and a kon of 403000 M⁻¹ s⁻¹. The “EC50: concentration necessary to inhibit bioactivity of 50 pg/ml of IL-6” value in test [2] was found to be 0.603 ng/mL. For the same molecule, the “IC50 … (IL-17 from mouse splenocytes, OD450)” value in [3] was roughly 4 ng/mL. For the same molecule, in the test with human IL-12 [12], the “IC50 (read off the curve) (interferon-gamma from NK92 cells, OD450)” value is roughly 0.8 ng/mL.

B5: 31A12c-PEG20 (scFv)
scFv: DIQLTQSPSFLSASVGDRVTITCQASEDIESYLAWYQQKPGKAPKLLIYSASTLTSGVPSRFSGSGSGTEFTLTISSLQPEDFATYYCLGADDTTTVFGGGTKVEIKGGGGSGGGGSGGGGSGGGGSEVQLVESGGGLVQPGGSLRLSCTASGFSLSSYWLTWVRQAPGKGLEWVGTIATSSTYYASWAKGRFTISRDNSKNTLYLQLNSLRAEDTAVYYCARGLTTDYDLDLWGQGTLVTVSS
modifications: C-terminal azidohomoalanine (Aha) conjugated to 20 kDa linear PEG bis-alkyne
As to B5, the “EC50 (pg/mL) of the folded scFv-PEG” value in test [13] was determined as 1040 pg/mL.

B6: 9C8 Hum scFv v3-2 (scFv)
scFv: DIQMTQSPSSVSASVGDRVTITCQASQSISNELSWYQQKPGKAPKLLIYRTSTLASGVPSRFSGSGSGTDFTLTISSLQPEDFATYYCQQGYNSNDVDNVFGGGTKVEIKGGGGSGGGGSGGGGSGGGGSEVQLVESGGGLVQPGGSLRLSCAASGIDLSSYDMSWVRQAPGKGLEWVGYIYTDSSTYYANWAKGRFTISRDNSKNTLYLQMNSLRAEDTAVYYCARGSTDYAFDTRLDLWGQGTLVTVSSGPPPPPHHHHHH
Regarding B6, the “IC50 (read off the curve) (B9 proliferation, OD570-600)” value with human IL-6 is roughly 0.7 ng/mL.
